Legend:
[1] = test system: Arabidopsis thaliana (columbia ecotype) plant body; assay: full-length cDNA microarray analysis of gene expression levels after environmental stress application; settings: in vivo
Description: In this example, the gene expression levels at the time of application of various types of environmental stresses were analyzed using microarrays. Specifically, the microarrays described in Seki et al., “Monitoring the expression profiles of 7000 Arabidopsis genes under drought, cold, and high-salinity stresses using a full-length cDNA microarray,” Plant J. 31: 279-292, 2002, were used, and analysis was carried out in accordance with the method similar to the method described therein. Various types of environmental stresses were applied to a plant body under the following conditions. Specifically, low-temperature stress application was carried out by introducing a plate containing a plant body into a low-temperature chamber (4° C.). Dehydration stress application was carried out by capturing the plant body with forceps while refraining from damaging the plant body, roughly removing moisture from the plant body on a Kim Towel, placing the plant body on another plate, placing the plate in a clean bench while leaving the lid open, letting it stand for 2 hours, and then closing the lid. Salt stress application was carried out by dispensing a mixture of MS medium (containing 1% sucrose, 0.1% agar, and 1 mM luciferin) with 250 mM NaCl to the roots of the plant bodies (200 μl per plant body) using a Pipetman. ABA stress application was carried out by dispensing a mixture of MS medium (containing 1% sucrose, 0.1% agar, and 1 mM luciferin) with 100 μM ABA to the roots of the plant bodies (200 μl per plant body) using a Pipetman. As a plant body to which environmental stress is to be applied, Arabidopsis thaliana (columbia ecotype), which had been cultivated on a germination medium containing Murashige and Skoog Salt, 3% sucrose, and […] for 3 weeks, was used. Cultivation conditions were determined so as to maintain the temperature in the chamber at 22° C. with a 16-hour light period and an 8-hour dark period. Total RNA was extracted from plant bodies after environmental stress application or from plant bodies to which no environmental stress had been applied using the TRIZOL Reagent (Life Technologies), and mRNA was extracted using the mRNA isolation kit (Militenyi Biotec Auburn). In accordance with the method described in the above article, mRNA samples were reversely transcribed in the presence of Cy3 dUTP or Cy5 dUTP (Amersham Pharmacia). Microarray analysis was carried out using cDNAs obtained via reverse transcription. Data obtained via microarray analysis were analyzed using the Quantarray Version 2.0 (GSI Lumonics).

[2] = test system: transgenic Arabidopsis thaliana plant body (luciferase reporter gene); assay: luciferase assay of promoter::LUC transgenic plants after environmental stress application; type: in vivo; settings: for Tissue allowing specific induction: summary over stress types
Description: Specifically, promoter regions were isolated from these genes, transgenic plants in which luciferase reporter genes were to be expressed under the control of such promoters were prepared, and tissue specificity of the promoters was inspected via luciferase assay.
In this example, DNA fragments containing promoter regions of the genes identified in Example 1 were recovered via PCR.
The nucleotide sequences of the amplified DNA fragments were determined in accordance with a conventional technique to confirm that mutagenesis, such as substitution or deletion, was not introduced thereinto. After the absence of mutagenesis was confirmed, the recovered DNA fragments were introduced into the vector for promoter analysis (i.e., a vector prepared by introducing the Gateway recombinant sequence (tradename: Gateway Vector Conversion System, Invitrogen) and the luciferase reporter gene into the pGreen vector (Plant Molecular Biology 42: 819-832, 2000)) using the Gateway recombination system to construct a recombinant vector.
The recombinant vector prepared in (1) above was introduced into a plant via Agrobacterium infection. When a gene is introduced via Agrobacterium infection, a process of infecting a plant with Agrobacterium containing a plasmid comprising the target gene construct is necessary. This process was carried out via vacuum infiltration. Specifically, a plant body of Arabidopsis thaliana that had been grown in soil comprising vermiculite and an equivalent amount of pearlite was soaked in a culture solution of Agrobacterium containing the recombinant vector prepared in (1). The resultant was placed in a desiccator, suctioned with a vacuum pump to 65 to 70 mmHg, and then allowed to stand at room temperature for 5 to 10 minutes. The pot was transferred onto a tray, covered with a wrap, and kept moistened. The wrap was removed on the following day, the plant was allowed to grow in that state, and seeds were then harvested.
Subsequently, seeds were sown on MS agar medium to which antibiotic hygromycin has been added in order to select an individual having the recombinant vector prepared in (1). Arabidopsis thaliana that had been grown in this medium was transferred to a pot and allowed to grow therein. Thus, seeds of transgenic plants to which the recombinant vector prepared in (1) has been introduced were obtained.
The seeds of the transgenic plant lineage prepared in (2) were sowed on MS agar medium. The plant body 10 days after sowing was used for luciferase assay.
At the outset, 1 mM luciferin (containing 0.01% Triton-X) was sprayed over the entire plant body 5 times. After the plant body was allowed to stand in the dark for 5 minutes, luciferase luminescence was assayed using ARGUS (assay after treatment for 0 hours). Subsequently, various types of environmental stresses were applied (see below). Low-temperature stress application was carried out by introducing a plate containing a plant body into a low-temperature chamber (4° C.). Dehydration stress application was carried out by capturing the plant body with forceps while refraining from damaging the plant body, roughly removing moisture from the plant body on a Kim Towel, placing the plant body on another plate, placing the plate in a clean bench while leaving the lid open, letting it stand for 2 hours, and then closing the lid. Salt stress application was carried out by dispensing a mixture of MS medium (containing 1% sucrose, 0.1% agar, and 1 mM luciferin) with 250 mM NaCl to the roots of the plant bodies (200 μl per plant body) using a Pipetman. ABA stress application was carried out by dispensing a mixture of MS medium (containing 1% sucrose, 0.1% agar, and 1 mM luciferin) with 100 μM ABA to the roots of the plant bodies (200 μl per plant body) using a Pipetman.
Luciferase luminescence was assayed 2, 5, and 10 hours after the above various types of environmental stresses had been applied using the ARGUS system (Hamamatsu Photonics). […]

Promoter of RAFL05-20-M16: environmental stress responsive promoter DNA, SEQ ID NO: 3, upstream of At2g46680 (ATHB7 transcription factor)
Environmental stress type to which the promoter responds [1]: Dehydration and salt | Tissue in which specific induction of expression is realized ([2]; ABA stress (100 μM ABA)): Root tissue | Tissue in which specific induction of expression is realized ([2]; ABA stress (100 μM ABA), listed as promoter of RAFL05-20-M16): root tissue | time after stress application at which activity to induce gene expression is exhibited ([2]; ABA stress, root tissue): about 2 hours | Tissue in which specific induction of expression is realized ([2]; Dehydration stress): Root tissue | time after stress application at which activity to induce gene expression is exhibited ([2]; Dehydration stress): about 10 hours | Tissue in which specific induction of expression is realized ([2]; Dehydration stress, listed as promoter of RAFL05-20-M16): root tissue | Tissue allowing specific induction [2]: Stem and leaf tissue and root tissue

B1: Promoter of RAFL05-17-B13: environmental stress responsive promoter DNA, SEQ ID NO: 1, upstream of At1g01470 (LEA protein) (nucleic acid, listed as Arabidopsis thaliana)
DNA: CCGCCAACTACCAACACCGACATATGTGCTTTCGGCAGTTTTGATATCATTCCAAAATTTCAATTATTATTTATCAAATTTATTTTCTTGGTAAAAGTTTAATTAATTTCAATTATTTGAATGTCTTAATTCACTGATTACAAATTATATATGTAATATATACATAACAATTTCGTTCGTGGAGTGTTATTATACTCCTTAAGCGAATCTGTATATTTTAAATAAAATTTTGATTTATGCACACGTACATGTTCAATTGAAACGTTTTCCCTAACTATAGATGCCAATAAATAATAAGTTGATTTTTAAAATGTACAAAACAAAAGGTACCGTTTTGTAAAATTTTGCAACCAAAAAGTACAATCGGCCGTTGAAAATCGTGGAACCAAACACTAATTAAAGAGAAGTGTGAATATAATCTAGTGTTTGCGGATTTATATTATAAAATTTGTGTATCACTAAAATGTCAAAGCATGCTTTGACTGGTCAATAAGTCAAATTAACTAACAAACCATGCGAGGCGTAGGTTTGACTTCTTAACATAAATGCTGACTCAGTTTTTCCATTCCGCAGCTGTCGACTAATTGGACACGCTTCTTCCAATCCCTTTCCACTAATCATCCATCAACACGTGACATGCCTACAGTGCACGACTTCACAGTGATCATGTCAAAGTTTTGTTTTTAAGAGAAGAAGATTCACGACTTCACAGTGATCATAGTCCAGTTACAAATTTGAATGGGCTTATGGCCTGTGGCCCATTTAAGTTTGACCTTAATATCCATCAGAAACCCATACCAATACGGGTCATAAGTGCATTGTCCATATAGTGTACCGCAATGCATGGGAGTACTACTACATTCCACCGACGTGCATATGGGGGGACATGGTCGGTCCATTAATCCCTTGCGCATCTTATTCCTTACGCGAATACTTTTCCCTCTTTTAGTTTTGTATAATACTTTCCATTTTTTTGGTATTAAATTTATCGTGTGACTATCTAAAAAGGTATTTAATTATCTAGTTTAGCTATAACTGCAAACAAAATATCTATTTTCATGAATGATATATTTTTGAAATAAAATATTGTTGTCATGTAACGAAAAAATCAAAAATCAAGCAGAAGACACGTATAACCCACGCTTTCACTCTCACTCGTGGAAAACCCTCACACGTACACAAACCATTATAAAATTTAATCCATTTACATCGACCGACTTCATAAGAACATCGTAATCCCATCCGTTTATATATATATTCCAAGTTAAACTTCATATCATACACACAAACCTAAAACACCGAAACAAAAACAAAGAGATTTAAACAAGAAGAGTTATT
Environmental stress type to which the promoter responds [1]: Dehydration and salt | Tissue in which specific induction of expression is realized ([2]; ABA stress (100 μM ABA)): Stem and leaf tissue (weak) | Tissue in which specific induction of expression is realized ([2]; ABA stress (100 μM ABA), listed as promoter of RAFL05-17-B13): weak gene expression in stem and leaf tissue | Tissue in which specific induction of expression is realized ([2]; Dehydration stress): Stem and leaf tissue and root tissue | Tissue in which specific induction of expression is realized ([2]; Dehydration stress, listed as promoter of RAFL05-17-B13): stem and leaf tissue and root tissue | Tissue in which specific induction of expression is realized ([2]; Low temperature stress (4° C.)): Stem and leaf tissue | Tissue in which specific induction of expression is realized ([2]; Low temperature stress (4° C.), listed as promoter of RAFL05-17-B13): stem and leaf tissue | Tissue in which specific induction of expression is realized ([2]; Salt stress (250 mM NaCl)): Stem and leaf tissue | Tissue in which specific induction of expression is realized ([2]; Salt stress (250 mM NaCl), listed as promoter of RAFL05-17-B13): stem and leaf tissue | Tissue allowing specific induction [2]: Stem and leaf tissue and root tissue
